Laboratory results from PMC4011162, “A gene horizontally transferred from bacteria protects arthropods from host plant cyanide poisoning” (eLife, 2014).

B1: Tu-CAS (Tetranychus urticae) (protein)
chain: MTESTVDRINGITPSALDLIGNTPLIALDRLWPGPGRLLAKCEFLNPTASLKDRSSYYMIAKAKESGQLKDGESVIEVTSGNQGGGIACVTAVMGHPFTVTMSKGNSPQRAIMMNALGANVILVDQVTGKPGNVTADDVAAAEETAMKIREETNAYYVDQFNNPTNCLAHYETTGPEIWRQTNGRIDAFLVGCGTGGCFVGTSKFLKEKNPNVRCFVVEPEGCQPIAGCTITKPLHLLQGSGYGCVPTLFDKKVYNDSISVSDEEAIEYRKLLGQKEGLFCGFTTGGNIAAAIKLLKSGQLPKDAWVVTILCDSGLKYPE
notes: tag removal not mentioned; PLP-dependent, predicted cytosolic

Assays:
Tu-CAS = target: T1, Tu-CAS (Tetranychus urticae, UniProt T1KF23); assay: cofactor dependence of enzymatic activity; format: biochemical; conditions: 500 µM pyridoxal-5'-phosphate in assay; Schiff base lysine conserved by sequence
T1 construct: gene 107363798; tag removal not mentioned; PLP-dependent, predicted cytosolic
T1 sequence (T1KF23 1-320): B1 chain

purified protein [1] = substrate: N[C@@H](CS)C(=O)O; assay: purified protein; format: biochemical, Tetranychus urticae; conditions: co-substrate sodium cyanide (standard 0.01 M stock), 0.2 M Tris pH 8.5, 37 °C, preincubated with 500 µM pyridoxal-5'-phosphate
purified protein [2] = substrate: CC(=O)OC[C@H](N)C(=O)O; assay: purified protein; conditions: co-substrate sodium sulfide (standard 2 mM); preincubated with 500 µM pyridoxal-5'-phosphate; pH not given

| Molecule | cofactor dependence of enzymatic activity (Tu-CAS) | Km (purified protein [1]) [µM] | kcat/Km (purified protein [1]) [M⁻¹ s⁻¹] | Km (purified protein [2]) [µM] | kcat/Km (purified protein [2]) [M⁻¹ s⁻¹] |
| --- | --- | --- | --- | --- | --- |
| Cc1ncc(COP(=O)(O)O)c(C=O)c1O [pyridoxal-5′-phosphate] | Enzymatic activity was dependent on pyridoxal-5′-phosphate as a cofactor |  |  |  |  |
| B1 |  | 312 | 6840 | 3170 | 203 |
